{
  "source": "paper doi:10.1101/2022.06.23.497280",
  "about": "(bioRxiv, 2022)",
  "key": {"HU-B": {"target": "T1, HU-B (UniProt P0ACF4 1-90, F47W)", "T1 sequence": "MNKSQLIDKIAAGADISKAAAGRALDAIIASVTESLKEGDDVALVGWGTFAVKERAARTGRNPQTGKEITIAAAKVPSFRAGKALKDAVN", "test": "EMSA"}, "HU-A": {"target": "HU-A (UniProt P0ACF0 1-90, F79W)", "test": "EMSA"}, "SEC": {"target": "the molecule itself", "test": "SEC"}},
  "data": [
    {"binder": "4WJ DNA (four-way junction, cruciform) (structured_DNA) DNA 1: CCCTATAACCCCTGCATTGAATTCCAGTCTGATAA DNA 2: GTAGTCGTGATAGGTGCAGGGGTTATAGGG DNA 3: AACAGTAGCTCTTATTCGAGCTCGCGCCCTATCACGACTA DNA 4: TTTATCAGACTGGAATTCAAGCGCGAGCTCGAATAAGAGCTACTGT", "values": [
      {"measurement": "binding result", "setting": "HU-B", "value": "binds"},
      {"measurement": "binding result", "setting": "HU-A", "value": "binds"}
    ]},
    {"binder": "HU-A (F79W mutant of HU-A) (natural protein, E. coli) MNKTQLIDVIAEKAELSKTQAKAALESTLAAITESLKEGDAVQLVGFGTFKVNHRAERTGRNPQTGKEIKIAAANVPAWVSGKALKDAVK", "values": [
      {"measurement": "stoichiometry N", "setting": "SEC", "value": 2}
    ]}
  ]
}
